What follows are binders tested against T1, HLA-A*24 (human) (assay: UV peptide-exchange ELISA; +++ = yield >50%).
T1 construct: MHC monomer made peptide-receptive by UV cleavage of a UV-sensitive ligand; also called peptide-receptive MHC class I monomer

Binder | peptide exchange yield [%]
WYGWHFPEL [WYGWHFPEL (SEQ ID NO: 76)] | 50 to 75
NYIVPDKQIF [NYIVPDKQIF (SEQ ID NO: 379)] | 50 to 75
VFQEKHHVI [VFQEKHHVI (SEQ ID NO: 380)] | 50 to 75
IYHSHHPTL [IYHSHHPTL (SEQ ID NO: 382)] | 50 to 75
RYKQDVERF [RYKQDVERF (SEQ ID NO: 383)] | 50 to 75
RWLPQKNAAQF [RWLPQKNAAQF (SEQ ID NO: 387)] | 50 to 75

Each binder was assayed against T2, HLA-A*01 (human) (assay: UV peptide-exchange ELISA; ++ = yield >20%).
T2 construct: MHC monomer made peptide-receptive by UV cleavage of a UV-sensitive ligand; also called peptide-receptive MHC class I monomer
Description: (§1) Candidate peptides for T cell based therapies according to the present invention were further tested for their MHC binding capacity (affinity). The individual peptide-MHC complexes were produced by UV-ligand exchange, where a UV-sensitive peptide is cleaved upon UV-irradiation, and exchanged with the peptide of interest as analyzed. Only peptide candidates that can effectively bind and stabilize the peptide-receptive MHC molecules prevent dissociation of the MHC complexes. To determine the yield of the exchange reaction, an ELISA was performed based on the detection of the light chain (β2m) of stabilized MHC complexes. The assay was performed as generally described in Rodenko et al. (Rodenko et al., 2006).
(§2) 96 well MAXISorp plates (NUNC) were coated over night with 2 ug/ml streptavidin in PBS at room temperature, washed 4× and blocked for 1 h at 37° C. in 2% BSA containing blocking buffer. […] Peptide-MHC monomers of the UV-exchange reaction were diluted 100-fold in blocking buffer. Samples were incubated for 1 h at 37° C., washed four times, incubated with 2 ug/ml HRP conjugated anti-β2m for 1h at 37° C., washed again and detected with TMB solution that is stopped with […]. Absorption was measured at 450 nm.

Binder | peptide exchange yield [%]
ATDLVVLDRY [ATDLVVLDRY (SEQ ID NO: 136)] | 20 to 50
GLNTGSALSY [GLNTGSALSY (SEQ ID NO: 146)] | 20 to 50
GSSDSSTLPKL [GSSDSSTLPKL (SEQ ID NO: 147)] | 20 to 50
SSDSSTLPKL [SSDSSTLPKL (SEQ ID NO: 178)] | 20 to 50
YLPQHTIETY [YLPQHTIETY (SEQ ID NO: 199)] | 20 to 50

What follows are binders tested against T3, HLA-B*07 (human) (assay: UV peptide-exchange ELISA; ++ = yield >20%).
T3 construct: MHC monomer made peptide-receptive by UV cleavage of a UV-sensitive ligand; also called peptide-receptive MHC class I monomer
Description: as §1, §2

Binder | peptide exchange yield [%]
HPELVNHIVF [HPELVNHIVF (SEQ ID NO: 267)] | 20 to 50
MPLLWLRGF [MPLLWLRGF (SEQ ID NO: 273)] | 20 to 50
HPMIDINGIIVF [HPMIDINGIIVF (SEQ ID NO: 278)] | 20 to 50
FPVTSIFHTF [FPVTSIFHTF (SEQ ID NO: 284)] | 20 to 50
FPQKFIDLL [FPQKFIDLL (SEQ ID NO: 288)] | 20 to 50
YPENGVVQM [YPENGVVQM (SEQ ID NO: 469)] | 20 to 50

These binders were tested against T4, HLA-B*44 (human) (assay: UV peptide-exchange ELISA; ++ = yield >20%).
T4 construct: MHC monomer made peptide-receptive by UV cleavage of a UV-sensitive ligand; also called peptide-receptive MHC class I monomer
Description: as §1, §2

Binder | peptide exchange yield [%]
KEVDPAGHSY [KEVDPAGHSY (SEQ ID NO: 322)] | 20 to 50
QEQDVDLVQKY [QEQDVDLVQKY (SEQ ID NO: 325)] | 20 to 50
MEVPVIKI [MEVPVIKI (SEQ ID NO: 332)] | 20 to 50
AEDEPAAAHL [AEDEPAAAHL (SEQ ID NO: 334)] | 20 to 50
KELEATKQY [KELEATKQY (SEQ ID NO: 335)] | 20 to 50
ASSSGPMRWW [ASSSGPMRWW (SEQ ID NO: 336)] | 20 to 50
TEFTTVLY [TEFTTVLY (SEQ ID NO: 343)] | 20 to 50
SDMVRFHLF [SDMVRFHLF (SEQ ID NO: 355)] | 20 to 50
AENLFRAF [AENLFRAF (SEQ ID NO: 366)] | 20 to 50
GEFPVRVQV [GEFPVRVQV (SEQ ID NO: 368)] | 20 to 50
GELALKKKI [GELALKKKI (SEQ ID NO: 371)] | 20 to 50
TEGIIMKDF [TEGIIMKDF (SEQ ID NO: 372)] | 20 to 50
AEEEIMKKI [AEEEIMKKI (SEQ ID NO: 476)] | 20 to 50
GEVSGLTKDF [GEVSGLTKDF (SEQ ID NO: 480)] | 20 to 50
TEFPIIKMY [TEFPIIKMY (SEQ ID NO: 488)] | 20 to 50

The binders below were run against T5, HLA-B*08 (human) (assay: UV peptide-exchange ELISA; ++++ = yield >75%).
T5 construct: MHC monomer made peptide-receptive by UV cleavage of a UV-sensitive ligand; also called peptide-receptive MHC class I monomer

Binder | peptide exchange yield [%]
MPMQDIKM [MPMQDIKM (SEQ ID NO: 296)] | > 75
RAQLKLVAL [RAQLKLVAL (SEQ ID NO: 297)] | > 75
MAQFKEISL [MAQFKEISL (SEQ ID NO: 299)] | > 75
YMHKLLVL [YMHKLLVL (SEQ ID NO: 301)] | > 75
LPFPKFTV [LPFPKFTV (SEQ ID NO: 303)] | > 75
ELKKLYCQI [ELKKLYCQI (SEQ ID NO: 304)] | > 75
ALKLRVAVL [ALKLRVAVL (SEQ ID NO: 305)] | > 75
ILKVKVGL [ILKVKVGL (SEQ ID NO: 306)] | > 75
ILLPRTVSL [ILLPRTVSL (SEQ ID NO: 307)] | > 75
MLKQKVEEL [MLKQKVEEL (SEQ ID NO: 308)] | > 75
LPPKKFVL [LPPKKFVL (SEQ ID NO: 310)] | > 75
EIRIRVVQM [EIRIRVVQM (SEQ ID NO: 311)] | > 75
EAMLRNKEL [EAMLRNKEL (SEQ ID NO: 312)] | > 75
ELKKKEYEEL [ELKKKEYEEL (SEQ ID NO: 313)] | > 75
AIISRLVAL [AIISRLVAL (SEQ ID NO: 314)] | > 75
DIYQRALNL [DIYQRALNL (SEQ ID NO: 315)] | > 75
LVKVKVLL [LVKVKVLL (SEQ ID NO: 317)] | > 75
EAAIRSVEL [EAAIRSVEL (SEQ ID NO: 318)] | > 75

These binders were tested against T4, HLA-B*44 (assay: UV peptide-exchange ELISA; ++++ = yield >75%).

Binder | peptide exchange yield [%]
AEMLERVIKNY [AEMLERVIKNY (SEQ ID NO: 319)] | > 75
MEVDPIGHVYIF [MEVDPIGHVYIF (SEQ ID NO: 320)] | > 75
FEYDFLLQRI (also called FEYDFLLORI) [FEYDFLLQRI (SEQ ID NO: 328)] | > 75
TENRYCVQL [TENRYCVQL (SEQ ID NO: 337)] | > 75
SEPALLHSW [SEPALLHSW (SEQ ID NO: 339)] | > 75
IEFIHPQAF [IEFIHPQAF (SEQ ID NO: 345)] | > 75
VEAPGPVHVYW [VEAPGPVHVYW (SEQ ID NO: 346)] | > 75
NEVLTYIKF [NEVLTYIKF (SEQ ID NO: 352)] | > 75
GEIIMQNNW [GEIIMQNNW (SEQ ID NO: 353)] | > 75
KEADIHFLI [KEADIHFLI (SEQ ID NO: 358)] | > 75
DELFSIALY [DELFSIALY (SEQ ID NO: 359)] | > 75
SENLFFASF [SENLFFASF (SEQ ID NO: 361)] | > 75
SEMNVNMKY [SEMNVNMKY (SEQ ID NO: 365)] | > 75
AEVGFVRFF [AEVGFVRFF (SEQ ID NO: 484)] | > 75
SEIGKAVGF [SEIGKAVGF (SEQ ID NO: 489)] | > 75

— US11352401
